Key:
[1] = target: full-length MNV-1 NS1-2, bacterial two-hybrid fusions (pBT-NS1-2full and pTRG-NS1-2full) (Murine norovirus (MNV-1)); test: two-hybrid; BacterioMatch II bacterial two-hybrid; NS1-2 fused to λcI (pBT) and to the RNA polymerase α-subunit (pTRG); selective medium with 3 mM 3-AT
[2] = target: truncated MNV-1 NS1-2 fragment (minus the transmembrane domain), recombinant from E. coli (Murine norovirus (MNV-1)); test: SEC + other: sucrose gradient sedimentation; Stokes radius from the calibrated Superose12 column and sedimentation coefficient from 5-20% sucrose gradients (16 h, 130,000×g, 4°C) joined in the simplified Svedberg equation; monomer and dimer fractions of the size exclusion column
[3] = target: truncated MNV-1 NS1-2, bacterial two-hybrid fusions (pBT-NS1-2trunc and pTRG-NS1-2trunc) (Murine norovirus (MNV-1)); test: two-hybrid; BacterioMatch II bacterial two-hybrid; NS1-2 fused to λcI (pBT) and to the RNA polymerase α-subunit (pTRG); selective medium with 3 mM 3-AT

Work on “full-length MNV-1 NS1-2, bacterial two-hybrid fusions (pBT-NS1-2full and pTRG-NS1-2full) (natural protein)” yielded a percent positive (transcriptional activation) [1] of 26%.

“truncated MNV-1 NS1-2 fragment (minus the transmembrane domain), recombinant from E. coli (domain or fragment)” showed a stoichiometry N [2] of 2.

“truncated MNV-1 NS1-2, bacterial two-hybrid fusions (pBT-NS1-2trunc and pTRG-NS1-2trunc) (domain or fragment)” was tested, and the percent positive (transcriptional activation) [3] was 38%.
